# Earlier results in US5780279A, “Method of selection of proteolytic cleavage sites by directed evolution and phagemid display” (Genentech, Inc., priority 1995, dated 1998).
# Where no end group is shown, it is not given here.
# Target: A64SAL subtilisin (Bacillus amyloliquefaciens, UniProt P00782, E263S/G276A/H171A/S131C/Y324L)
# Settings: Carter et al (1989)
# A64SAL subtilisin, sequence (P00782 108-382 S131C/H171A/E263S/G276A/Y324L): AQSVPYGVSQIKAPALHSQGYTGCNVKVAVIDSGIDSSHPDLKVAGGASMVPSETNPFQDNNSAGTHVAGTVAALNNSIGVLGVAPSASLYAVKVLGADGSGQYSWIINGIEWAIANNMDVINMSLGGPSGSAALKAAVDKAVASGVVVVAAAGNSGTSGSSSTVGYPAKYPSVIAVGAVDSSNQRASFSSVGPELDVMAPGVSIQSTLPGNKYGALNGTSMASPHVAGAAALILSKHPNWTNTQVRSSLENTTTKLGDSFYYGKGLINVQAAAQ
substance,measurement,value
AAHYTRQ,substrate quality for A64SAL subtilisin,good substrate
